Measurements: patent publication US20220380463A1 (Adimab, published 2022)
Numbering of substitutions follows the chain as printed.

T1: Cynomolgus CD3εδ Fc heterodimer (Cy CD3ε Fc / CD3δ Fc-HIS) (cynomolgus, UniProt Q95LI8 22-100)
T1 chain 1: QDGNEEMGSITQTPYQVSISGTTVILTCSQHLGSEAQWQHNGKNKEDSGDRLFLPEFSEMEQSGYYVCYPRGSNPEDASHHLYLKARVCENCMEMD
T1 chain 2: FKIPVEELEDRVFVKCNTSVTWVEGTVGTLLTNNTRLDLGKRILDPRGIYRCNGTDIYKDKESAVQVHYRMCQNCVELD

B1: SAD10319_P04_G11 (ADI-48641) (antibody, V domains shown)
VH: QVQLVQSGAEVKKPGASVKVYCKASGYTFTTYEMHWVRQAPGQRLEWMGSINAGDANTKYSQKFQGRVTITRDTSASTAYMELSSLRSEDTAVYYCARDAYHHYFYDVWGQGTLVTVSS
VL: DIVMTQSPDSLAVSLGERATINCKSSQSLLNARTGKNYLAWYQQKPGQPPKLLIYWASTRESGVPDRFSGSGSGTDFTLTISSLQAEDVAVYYCKQSYSRRTFGGGTKVEIK
notes: IgG; also called Ab39
B2: SAD10319_P02_H06 (ADI-48633) (antibody, V domains shown)
VH: B1 VH with Y21S, T31A, E33V, N52D, D55T, A56G, H102G, V108H
VL: B1 VL
notes: IgG; also called Ab16
B3: SAD10319_P03_E08 (ADI-48637) (antibody, V domains shown)
VH: QVQLVQSGAEVKKPGASVKVSCKASGYTFNDYAMHWVRQAPGQRLEWMGYINGTGATVYSQKFQGRVTITRDTSASTAYMELSSLRSEDTAVYYCARDAYHHYFYDVWSQGTLVTVSS
VL: B1 VL
notes: IgG; also called Ab21
B4: SAD10319_P04_E12 (ADI-48642) (antibody, V domains shown)
VH: QVQLVQSGAEVKKPGASVKVSCKASGYTFTSYPMHWVRQAPGQRLEWMGWIDAGTGLTTYSQKFQGRVTITRDTSASTAYMELSSLRSEDTAVYYCARDHYHRYFYDMWGQGTLVTVSS
VL: B1 VL
notes: IgG; also called Ab43
B5: SAD10319_P03_B09 (ADI-48639) (antibody, V domains shown)
VH: B4 VH with S31E, P33D, L57A, T59V, H100A, H102G, M108H
VL: B1 VL
notes: IgG; also called Ab24
B6: SAD10319_P03_G08 (ADI-48638) (antibody, V domains shown)
VH: B4 VH with T30S, P33D, L57F, T59K, H100A, H102G, R103H, M108H
VL: B1 VL
notes: IgG; also called Ab22
B7: SAD10319_P03_C07 (ADI-48634) (antibody, V domains shown)
VH: B4 VH with T30E, P33D, L57A, H100A, R103H, M108V
VL: B1 VL
notes: IgG; also called Ab17
B8: SAD10319_P03_E09 (ADI-48640) (antibody, V domains shown)
VH: B4 VH with T30L, P33D, L57A, H100A, R103H, M108V
VL: B1 VL
notes: IgG; also called Ab26
B9: SAD10319_P03_E07 (ADI-48635) (antibody, V domains shown)
VH: B4 VH with T30E, P33D, L57A, H100A, R103H, M108V
VL: B1 VL
notes: IgG; also called Ab17
B10: SAD10319_P03_A08 (ADI-48636) (antibody, V domains shown)
VH: B4 VH with S31D, P33D, T59K, H102G, R103H, M108V
VL: B1 VL
notes: IgG; also called Ab230
B11: SAD10319_P01_E02 (ADI-57304) (antibody, V domains shown)
VH: QVQLVQSGAEVKKPGASVKVSCKASGYTFTSDFMHWVRQAPGQRLEWMGWINPATGATKYSQKFQGRVTITRDTSASTAYMELSSLRSEDTAVYYCARDAYGHYFYDHWGQGTLVTVSS
VL: B1 VL
notes: IgG; also called Ab240
B12: SAD10319_P04_B10 (ADI-57332) (antibody, V domains shown)
VH: B11 VH with D32T, W50F, N52D, P53A, A54G
VL: B1 VL
notes: IgG; also called Ab30
B13: SAD10319_P02_C06 (ADI-57322) (antibody, V domains shown)
VH: B11 VH with D32Y, F33A, A54V, K59V, H108V
VL: B1 VL
notes: IgG; also called Ab10
B14: SAD10320_P01_B03 (ADI-57354) (antibody, V domains shown)
VH: QVQLVQSGAEVKKPGASVKVSCKASGFNIKDYYMHWVRQAPGQRLEWMGWIDLENANTIYDAKFQGRVTITRDTSASTAYMELSSLRSDDTAVYYCARDQHGRYFYDVWGQGTLVTVSS
VL: B1 VL
notes: IgG; also called Ab61
B15: SAD10319_P02_A06 (ADI-57320) (antibody, V domains shown)
VH: B4 VH with T30D, S31A, P33A, L57A, T59K, H102G, R103H, M108V
VL: B1 VL
notes: IgG; also called Ab8
B16: SAD10319_P02_H06 (ADI-48633) (antibody, V domains shown)
VH: B11 VH with S31A, D32Y, F33V, W50S, N52D, P53A, A54G, A57N
VL: B1 VL
notes: IgG; also called Ab16
B17: SAD10319_P04_G10 (ADI-57334) (antibody, V domains shown)
VH: B11 VH with S31D, D32Y, F33Y, K59A, Y104H, H108V
VL: B1 VL
notes: IgG; also called Ab32
B18: SAD10320_P02_F06 (ADI-57370) (antibody, V domains shown)
VH: B14 VH with E46A, D89E, Q100A, H101Y, Y104F, F105H
VL: B1 VL with T34P
notes: IgG; also called Ab87
B19: LAD9953_P01_H01 (ADI-57437) (antibody, V domains shown)
VH: B14 VH with D89E, Q100A, H101Y
VL: B1 VL with N31H, G35H
notes: IgG; also called Ab167
B20: LAD9954_P01_B02 (ADI-57438) (antibody, V domains shown)
VH: B14 VH with D89E, Q100A, H101Y
VL: B1 VL with N31H, K36H
notes: IgG; also called Ab168
B21: SAD10319_P02_E04 (ADI-57311) (antibody, V domains shown)
VH: B4 VH with T30E, P33Y, W47R, W50S, D52V, L57A, T59K, H102G, M108V, L114P
VL: B1 VL
notes: IgG; also called Ab252
B22: LAD9955_P01_G02 (ADI-57439) (antibody, V domains shown)
VH: B14 VH with D89E, Q100A, H101Y
VL: B1 VL with N31H, Y38H
notes: IgG; also called Ab170
B23: SAD10320_P02_G06 (ADI-57371) (antibody, V domains shown)
VH: B14 VH with E46D, D89E, Q100A, H101Y, Y104H
VL: B1 VL with G35R, K36T
notes: IgG; also called Ab88
B24: SAD10319_P02_F06 (ADI-57324) (antibody, V domains shown)
VH: B11 VH with T30L, D32Y, F33A, W47R, A54S, K59D, H108V
VL: B1 VL
notes: IgG; also called Ab13
B25: SAD10319_P02_E06 (ADI-57323) (antibody, V domains shown)
VH: B11 VH with T30A, S31D, D32Y, F33A, E46A, A54H, K59F, H103R
VL: B1 VL
notes: IgG; also called Ab12
B26: SAD10320_P01_A03 (ADI-57353) (antibody, V domains shown)
VH: B14 VH with D89E, Q100H, H101R
VL: B1 VL with Y98S, S99H
notes: IgG; also called Ab60
B27: SAD10320_P01_E02 (ADI-57349) (antibody, V domains shown)
VH: B14 VH with E46A, D89E, Q100A, H101Y, Y104H
VL: B1 VL
notes: IgG; also called Ab55
B28: SAD10319_P02_F04 (ADI-57312) (antibody, V domains shown)
VH: B11 VH with T30D, D32Y, F33T, W50Y, A54D, K59Y, G102H, H108V
VL: B1 VL
notes: IgG; also called Ab253

Each binder was assayed against T2, human CD3 on CD3+ Jurkat cells (human, UniProt P07766 23-207) (assay: flow cytometry on CD3+ Jurkat cells, ratio of MFI at pH 6.0 to pH 7.4).
T2 construct: whole, on cells; Native CD3 complex on cells; the other CD3 chains are not specified for this assay; also called Human CD3+ Jurkat
Summary of the method: (§1)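 Jurkat cells incubated 20 min on ice with 100 nM yeast-produced IgG in PBS + 0.1% BSA at pH 6.0 or pH 7.4, with all washes and staining at the same pH. Bound antibody detected with anti-human IgG-RPE, dead cells excluded by propidium iodide; MFI measured by flow cytometry.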

T2 sequence (P07766 23-207): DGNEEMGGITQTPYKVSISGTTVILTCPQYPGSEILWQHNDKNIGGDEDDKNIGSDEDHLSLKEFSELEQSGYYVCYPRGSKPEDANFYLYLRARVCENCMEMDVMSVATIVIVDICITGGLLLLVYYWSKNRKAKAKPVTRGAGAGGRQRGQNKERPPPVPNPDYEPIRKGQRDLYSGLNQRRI

Row | MFI pH 6.0/MFI pH 7.4 | Binder
1 | 1.1 | B1
2 | 1.9 | B2
3 | 3.3 | B3
4 | 6.1 | B4
5 | 16.5 | B5
6 | 23.8 | B6
7 | 14.7 | B7
8 | 13.8 | B8
9 | 11.6 | B9
10 | 25.9 | B10

Target: T1, Cynomolgus CD3εδ Fc heterodimer (Cy …)
Experiment: BLI (Octet), IgG on AHC sensor, pH 6.0

Row | koff [s⁻¹] | Binder
11 | 0.0248 | B11
12 | 0.0127 | B12
13 | 0.023 | B13
14 | 0.0204 | B14
15 | 0.0327 | B15
16 | 0.0188 | B16
17 | 0.015 | B17
18 | 0.017 | B18
19 | 0.0176 | B19
20 | 0.0303 | B20
21 | 0.0215 | B21
22 | 0.0282 | B22
23 | 0.00387 | B23
24 | 0.0122 | B24
25 | 0.00251 | B25
26 | 0.0271 | B26
27 | 0.00585 | B27
28 | 0.0317 | B28

Target: T1, Cynomolgus CD3εδ Fc heterodimer (Cy …)
Experiment: BLI (Octet), IgG on AHC sensor, pH 7.4

Row | Kd [nM] | koff [s⁻¹] | kon [M⁻¹ s⁻¹] | Binder
29 | 145 | 0.0355 | 245000 | B11
30 | 58.8 | 0.0199 | 338000 | B12
31 | 51.3 | 0.0255 | 496000 | B13
32 | 75.1 | 0.0159 | 212000 | B14
33 | 30.2 | 0.0115 | 383000 | B15
34 | 78 | 0.0171 | 220000 | B16
35 | 62.6 | 0.0182 | 291000 | B17
36 | 141 | 0.0166 | 118000 | B18
37 | 86.7 | 0.0209 | 242000 | B19
38 | 33.9 | 0.0107 | 316000 | B20
39 | 64.1 | 0.0208 | 324000 | B21
40 | 127 | 0.0187 | 147000 | B22
41 | 64.8 | 0.0219 | 338000 | B23
42 | 134 | 0.0331 | 247000 | B24
43 | 60.6 | 0.0267 | 440000 | B25
44 | 78.4 | 0.0174 | 222000 | B26
45 | 68.6 | 0.0208 | 304000 | B27
46 | 117 | 0.0301 | 257000 | B28

The binders below were run against T2, human CD3 on CD3+ Jurkat cells (assay: flow cytometry, 100 nM IgG on CD3+ Jurkat cells, pH 6.0).
Summary of the method: as §1

Row | MFI pH 6.0 [MFI] | Binder
47 | 59 | B1
48 | 2790 | B2
49 | 244 | B3
50 | 332 | B4
51 | 897 | B5
52 | 2000 | B6
53 | 651 | B7
54 | 772 | B8
55 | 623 | B9
56 | 897 | B10

The binders below were run against T2, human CD3 on CD3+ Jurkat cells (assay: flow cytometry, 100 nM IgG on CD3+ Jurkat cells, pH 7.4).
Summary of the method: as §1

Row | MFI pH 7.4 [MFI] | Binder
57 | 52 | B1
58 | 1450 | B2
59 | 73 | B3
60 | 55 | B4
61 | 55 | B5
62 | 84 | B6
63 | 44 | B7
64 | 56 | B8
65 | 54 | B9
66 | 35 | B10
